Experimental data from patent publication CN113234166A (SHENZHEN INNOVA NANOBODI CO LTD, dated 2021).

Biological target: T1, 血清标本中的AFP抗原 (UniProt P02771 19-609)
T1 construct: also called 质控血清AFP; 标准血清中的AFP
T1 sequence (looked up): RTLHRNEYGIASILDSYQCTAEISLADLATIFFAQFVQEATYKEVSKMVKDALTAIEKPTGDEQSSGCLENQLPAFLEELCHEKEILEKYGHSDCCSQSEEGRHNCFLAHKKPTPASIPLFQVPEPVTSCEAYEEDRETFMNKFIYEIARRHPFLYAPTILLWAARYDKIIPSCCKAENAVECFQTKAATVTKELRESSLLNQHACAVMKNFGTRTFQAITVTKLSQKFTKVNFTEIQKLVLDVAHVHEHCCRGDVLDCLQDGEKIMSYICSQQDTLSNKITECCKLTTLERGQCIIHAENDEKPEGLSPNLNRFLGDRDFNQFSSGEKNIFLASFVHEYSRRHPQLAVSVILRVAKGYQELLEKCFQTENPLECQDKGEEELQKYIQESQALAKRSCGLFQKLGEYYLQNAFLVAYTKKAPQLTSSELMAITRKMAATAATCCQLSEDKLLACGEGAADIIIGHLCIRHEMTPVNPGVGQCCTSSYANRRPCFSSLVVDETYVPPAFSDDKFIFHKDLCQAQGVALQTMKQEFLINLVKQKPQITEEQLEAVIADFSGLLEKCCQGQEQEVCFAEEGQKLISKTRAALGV
Test: double-antibody sandwich chemiluminescent immunoassay, detection antibody

binding result: binds
B1: 带有化学发光区序列的纳米抗体1C5-HAP (other)
chain: QVQLQESGGGLVQAGGSLRLSCKASERTFSSYSMAWYRQAPGKKREFVASISWDDERTYYTDSVKGRFTISRPNAKNTVYLQMNSLKPEDTAVYYCAVGGLSDGLGPSYDYWGQGTQVTVSSGGGGSGGGGSGGGGSIIPVEEENPDFWNREAAEALGAAKKLQPAQTAAKNLIIFLGDGMGVSTVTAARILKGQKKDKLGPEIPLAMDRFPYVALSKTYNVDKHVPDSGATATAYLCGVKGNFQTIGLSAAARFNQCNTTRGNEVISVMNRAKKAGKSVGVVTTTRVQHASPAGTYAHTVNRNWYSDADVPASARQEGCQDIATQLISNMDIDVILGGGRKYMFRMGTPDPEYPDDYSQGGTRLDGKNLVQEWLAKRQGARYVWNRTELMQASLDPSVTHLMGLFEPGDMKYEIHRDSTLDPSLMEMTEAALRLLSRNPRGFFLFVEGGRIDHGHHESRAYRALTETIMFDDAIERAGQLTSEEDTLSLVTADHSHVFSFGGYPLRGSSIFGLAPGKARDRKAYTVLLYGNGPGYVLKDGARPDVTESESGSPEYRQQSAVPLDEETHAGEDVAVFARGPQAHLVHGVQEQTFIAHVMAFAACLEPYTACDLAPPAGTTD
notes: Expressed in 293 cells
